Results published in PMC4058522, “Structural Basis for Phosphorylation-Dependent Recruitment of Tel2 to Hsp90 by Pih1” (Structure(London, England:1993), 2014).

How the values were obtained:
[1] = target: yeast Hsp90, intact (full-length) dimer (yeast) (UniProt P02829); experiment: ITC; 600 μM Tah1 injected into 40 μM yeast Hsp90; 10 mM Tris pH 7.5, 5 mM NaCl; 10°C or 30°C (not told which)
[2] = target: mouse Pih1 PIH domain 1-200 (His-mPih1 1-200) (mouse) (UniProt Q9CQJ2); experiment: ITC; peptides at 350 μM injected into 30 μM Pih1 (mPIH domain) at 30°C; 20 mM Tris pH 7.5, 5 mM NaCl
[3] = target: human Spagh/RPAP3 120-395 (tandem TPR region) (human) (UniProt Q9H6T3); experiment: ITC; 500 μM yeast Hsp90 injected into 20 μM Spagh/RPAP3 120-395; 10 mM Tris pH 7.5, 5 mM NaCl; 10°C or 30°C (not told which)
[4] = target: pre-assembled full-length yeast Tah1-Pih1 complex (yeast) (UniProt P25638); experiment: ITC; 301 μM yeast Hsp90 injected into 25 μM yeast Tah1-Pih1 complex; 10 mM Tris pH 7.5, 5 mM NaCl; 10°C or 30°C (not told which)

mouse Pih1 PIH domain 1-200 (His-mPih1 1-200) (mouse), sequence (Q9CQJ2 1-200): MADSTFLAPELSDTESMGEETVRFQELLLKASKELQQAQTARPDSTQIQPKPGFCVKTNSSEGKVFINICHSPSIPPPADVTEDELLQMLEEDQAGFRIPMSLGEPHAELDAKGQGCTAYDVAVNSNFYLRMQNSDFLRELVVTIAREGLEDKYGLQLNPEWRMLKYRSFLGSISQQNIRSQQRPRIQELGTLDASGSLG
human Spagh/RPAP3 120-395 (tandem TPR region) (human), sequence (Q9H6T3 120-395): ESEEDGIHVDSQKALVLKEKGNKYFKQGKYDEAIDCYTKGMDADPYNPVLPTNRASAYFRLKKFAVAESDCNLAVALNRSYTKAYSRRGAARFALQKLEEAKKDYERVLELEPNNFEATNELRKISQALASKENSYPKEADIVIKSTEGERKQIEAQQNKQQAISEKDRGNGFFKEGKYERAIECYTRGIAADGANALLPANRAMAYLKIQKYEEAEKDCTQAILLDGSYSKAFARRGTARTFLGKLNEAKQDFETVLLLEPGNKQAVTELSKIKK

Substance	Kd [2] [µM]	further results
Tah1 (yeast, full-length) (from UniProt P25638 1-111) (natural protein)	–	Kd [1]: 5.9 µM; stoichiometry N (Tah1 per Hsp90 chain) [1]: 1
mouse Tel2 484-496 peptide, pSer 488	15.3	–
mouse Tel2 484-496 peptide, pSer 492	0.39	–
mouse Tel2 484-496 peptide, pSer 486	> 100	–
yeast Hsp90, intact (full-length) dimer (from UniProt P02829 1-709) (natural protein)	–	Kd [3]: 6.8 µM; stoichiometry N ([3]; scale: Hsp90 chains per Spagh/RPAP3): 2; Kd [4]: 4 µM
mouse Tel2 484-496 peptide, bis-phosphorylated pSer 488 and pSer 492 (QGSDpSELDpSDDEF)	0.17	–
mouse Tel2 484-496 peptide, bis-phosphorylated pSer 486 and pSer 488	37.9	–
